Experimental data taken from the supplement of paper PMC10126150.
± gives the standard deviation of the averaged measurements.

Test system: ATP
Experiment: switch fluorescence ratio, 500 uM ATP over buffer (Cy3 cluster intensity, sum of 5 cycles each) (fold (ratio)); higher = stronger signal-on switching upon ATP binding; sequences stand for … in TCGTCGGCAGCGTCAGATGTGTATAAGAGACAGTTTTTTTTTTTTTTTTTTTTTTTTT…TC
Conditions: aptamer strand: ATP DNA aptamer (quencher-CACCTGGGGGAGTATTGCGGAGGAAGG + anchor), 100 nM annealed; ATP concentration: 500 uM
Procedure, shortened: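 Exposure to 500 uM ATP lasted 15 min at 22 °C before imaging, and a selection-buffer image was taken beforehand, for Cy3-labelled switching-strand clusters on a modified Illumina MiSeq flow-cell annealed to 100 nM quencher-labelled ATP aptamer. Five buffer/ATP cycles were run with NaOH stripping and re-annealing between them. The fluorescence ratio per cluster is summed target-cycle over summed buffer-cycle Cy3 intensity, averaged per switch-domain sequence. Clusters outside 100-1000 RFU were excluded.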

Row | Sequence | switch fluorescence ratio
1 | AGTTAATGAC | 0.997 ± 0.013
2 | AGTTAATTTG | 0.9823 ± 0.0097
3 | AGTTACGAAA | 1.11 ± 0.025
4 | AGTTAGCTT | 1.02 ± 0.072
5 | AGTTAGGAAA | 1.02 ± 0.032
6 | AGTTAGGGTT | 0.999 ± 0.039
7 | AGTTAGTAGT | 0.981 ± 0.021
8 | AGTTAGTGGT | 0.978 ± 0.023
9 | AGTTATAAAG | 0.986 ± 0.037
10 | AGTTATGTTG | 0.995 ± 0.021
11 | AGTTATTTGG | 1 ± 0.0047
12 | AGTTCATTGG | 1.04 ± 0.059
13 | AGTTCCATCG | 1.05 ± 0.047
14 | AGTTCCGAGG | 1.12 ± 0.14
15 | AGTTCGGTTT | 0.9581 ± 0.0039
16 | AGTTCTAGGG | 0.971 ± 0.031
17 | AGTTGAACCC | 0.9872 ± 0.0016
18 | AGTTGATTGT | 0.9895 ± 0.0076
19 | AGTTGCGGTT | 1.002 ± 0.0018
20 | AGTTGCTCCT | 0.986 ± 0.024
21 | AGTTGCTTGT | 1.01 ± 0.036
22 | AGTTGGAGCG | 1.026 ± 0.0041

Row | Sequence | switch fluorescence ratio
23 | AGTTGGAGCT | 0.95964 ± 9.2e-05
24 | AGTTGGCAAT | 1.24 ± 0.061
25 | AGTTGGCGGA | 0.999 ± 0.024
26 | AGTTGGCTTT | 1.018 ± 0.008
27 | AGTTGGGATC | 1.036 ± 0.008
28 | AGTTGGGGAA | 0.983 ± 0.031
29 | AGTTGGGGAC | 1.012 ± 0.0071
30 | AGTTGGTATT | 0.998 ± 0.015
31 | AGTTGGTCTA | 1 ± 0.017
32 | AGTTGTGGAG | 0.986 ± 0.018
33 | AGTTGTGTGG | 1.02 ± 0.023
34 | AGTTTAGGGT | 1.03 ± 0.054
35 | AGTTTATCTG | 1.01 ± 0.04
36 | AGTTTCCTAG | 0.971 ± 0.022
37 | AGTTTCGGGA | 1 ± 0.033
38 | AGTTTCGGTC | 1 ± 0.028
39 | AGTTTCTTAG | 1.015 ± 0.0019
40 | AGTTTGCTAG | 0.994 ± 0.034
41 | AGTTTGCTTG | 0.993 ± 0.025
42 | AGTTTGGACA | 0.997 ± 0.015
43 | AGTTTGGGCC | 1.017 ± 0.0059
44 | AGTTTGGTCA | 0.98 ± 0.021

Row | Sequence | switch fluorescence ratio
45 | AGTTTTCAAG | 1 ± 0.026
46 | AGTTTTGAAG | 0.9906 ± 0.0096
47 | AGTTTTGAG | 0.9928 ± 0.0097
48 | AGTTTTGAGG | 1.001 ± 0.0016
49 | AGTTTTGCGT | 1.01 ± 0.034
50 | AGTTTTGGGT | 0.967 ± 0.02
51 | AGTTTTTAAT | 0.999 ± 0.018
52 | AGTTTTTATT | 1.03 ± 0.015
53 | AGTTTTTTAT | 1 ± 0.022
54 | ATAAAAAGGG | 1 ± 0.029
55 | ATAAAAGGTG | 1.1 ± 0.074
56 | ATAAAATTTA | 1.04 ± 0.03
57 | ATAAAATTTT | 1 ± 0.03
58 | ATAAACGACT | 1.06 ± 0.024
59 | ATAAAGGCGA | 0.975 ± 0.043
60 | ATAAAGGGCT | 0.988 ± 0.054
61 | ATAAAGGTTG | 0.993 ± 0.016
62 | ATAAAGTATG | 0.99 ± 0.018
63 | ATAAAGTTTC | 1.03 ± 0.015
64 | ATAAATACAG | 0.9959 ± 0.0042
65 | ATAAATGTGT | 1.01 ± 0.041
66 | ATAAATGTTA | 0.999 ± 0.011

Row | Sequence | switch fluorescence ratio
67 | ATAACACTTC | 1.03 ± 0.015
68 | ATAACCGTGG | 1.05 ± 0.074
69 | ATAACGAGTC | 1.04 ± 0.15
70 | ATAACGTAGC | 1.11 ± 0.059
71 | ATAACTTATA | 1.011 ± 0.0041
72 | ATAAGACCCG | 0.98609 ± 0.00056
73 | ATAAGAGTCT | 1.03 ± 0.094
74 | ATAAGGAACG | 1.01 ± 0.061
75 | ATAAGGAGAT | 0.9759 ± 0.0042
76 | ATAAGGAGGA | 1.1 ± 0.23
77 | ATAAGGCATG | 0.975 ± 0.021
78 | ATAAGGCTCG | 0.966 ± 0.011
79 | ATAAGGGAAC | 1.04 ± 0.017
80 | ATAAGGGGAG | 0.999 ± 0.027
81 | ATAAGGGGGA | 0.998 ± 0.022
82 | ATAAGGGGTG | 1.02 ± 0.069
83 | ATAAGGGTTC | 1.03 ± 0.043
84 | ATAAGGTAG | 1.004 ± 0.0026
85 | ATAAGTAAAG | 1.01 ± 0.021
